In article PMC3948464 (Nature Communications, 2014):

Biological target: GST-AK2 (glutatione S-transferase-adenylate kinase 2) (human, UniProt P54819 1-239)
Assay: SEC

binding result: binds
B1: His-DUSP26 (enzyme)
chain: MCPGNWLWASMTFMARFSRSSSRSPVRTRGTLEEMPTVQHPFLNVFELERLLYTGKTACNHADEVWPGLYLGDQDMANNRRELRRLGITHVLNASHSRWRGTPEAYEGLGIRYLGVEAHDSPAFDMSIHFQTAADFIHRALSQPGGKILVHCAVGVSRSATLVLAYLMLYHHLTLVEAIKKVKDHRGIIPNRGFLRQLLALDRRLRQGLEA
